Measured values as given in patent publication US20170260258A1.

Tests used:
[1] = target: humanized antibody HzKR127-3.2
[2] = target: humanized antibody HzKR127-3.1
[3] = target: humanized antibody HzKR127-3
[4] = target: KR127 antibody (murine monoclonal antibody)
Sequence of KR127 antibody (murine monoclonal antibody) (VH, as listed by the source, chain 1 of 2): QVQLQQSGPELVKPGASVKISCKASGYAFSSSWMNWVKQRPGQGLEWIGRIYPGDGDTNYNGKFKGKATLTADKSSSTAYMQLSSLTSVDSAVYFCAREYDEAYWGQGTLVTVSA
Sequence of KR127 antibody (murine monoclonal antibody) (VL, as listed by the source, chain 2 of 2): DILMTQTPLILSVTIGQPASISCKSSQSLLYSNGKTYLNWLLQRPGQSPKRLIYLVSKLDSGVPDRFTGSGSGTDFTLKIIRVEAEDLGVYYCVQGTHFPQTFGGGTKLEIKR

Sequence of GST-pre-S1 (1st to 56th amino acids) protein (P08515 whole entry): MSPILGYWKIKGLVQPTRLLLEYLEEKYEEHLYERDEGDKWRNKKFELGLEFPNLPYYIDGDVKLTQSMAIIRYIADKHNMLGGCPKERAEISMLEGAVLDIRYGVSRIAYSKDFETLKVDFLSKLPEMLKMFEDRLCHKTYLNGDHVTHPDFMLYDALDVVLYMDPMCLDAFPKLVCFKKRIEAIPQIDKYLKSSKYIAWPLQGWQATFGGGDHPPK
Sequence of humanized antibody HzKR127-3.2 (VH, as listed by the source, chain 1 of 2): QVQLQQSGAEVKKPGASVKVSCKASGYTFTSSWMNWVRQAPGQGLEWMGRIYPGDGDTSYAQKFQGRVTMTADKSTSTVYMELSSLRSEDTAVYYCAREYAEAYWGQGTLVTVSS
Sequence of humanized antibody HzKR127-3.2 (VL, as listed by the source, chain 2 of 2): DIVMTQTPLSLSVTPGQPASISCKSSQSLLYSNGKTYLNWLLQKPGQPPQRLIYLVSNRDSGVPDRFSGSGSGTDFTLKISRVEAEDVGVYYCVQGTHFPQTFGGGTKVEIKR
Sequence of humanized antibody HzKR127-3 (VH, as listed by the source limits assumed, chain 1 of 2): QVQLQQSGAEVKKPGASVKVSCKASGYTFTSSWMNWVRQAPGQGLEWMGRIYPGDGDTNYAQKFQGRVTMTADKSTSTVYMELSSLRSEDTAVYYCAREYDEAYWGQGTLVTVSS
Sequence of humanized antibody HzKR127-3 (VL, as listed by the source limits assumed, chain 2 of 2): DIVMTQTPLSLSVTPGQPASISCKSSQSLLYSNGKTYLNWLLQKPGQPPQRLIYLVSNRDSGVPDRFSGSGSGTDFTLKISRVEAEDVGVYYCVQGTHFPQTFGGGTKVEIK
Sequence of humanized antibody HzKR127-3.1 (VH, as listed by the source, chain 1 of 2): as the sequence (VH, as listed by the source limits assumed, chain 1 of 2) above, with D101A counted along it

For “GST-pre-S1 (1st to 56th amino acids) protein (from UniProt P08515 1-218)”, the IC50 (read off the curve) [1] was 2 nM, the IC50 (read off the curve) [2] was 6 nM and the IC50 (read off the curve) [3] was 30 nM. It also gave an IC50 (read off the curve) [4] of 20 nM.
